Test results as given in US9694061B2, “Fully human antibodies to high molecular weight-melanoma associated antigen and uses thereof” (University of Pittsburgh—Of the Commonwealth System of …, priority 2008, dated 2017).

Tests used:
HMW-MAA [1] = target: T1, HMW-MAA (Homo sapiens, UniProt Q6UVK1); test: ELISA of soluble scFv antibodies with cell lines; assay type: binding; parameters: Cultured human melanoma cells Colo38, FO-1, SK-MEL-28 and Melur, all of which express HMW-MAA; endogenous in cells; host or cells: Colo38, FO-1, SK-MEL-28, Melur human melanoma cells
T1 sequence (Q6UVK1 30-2322): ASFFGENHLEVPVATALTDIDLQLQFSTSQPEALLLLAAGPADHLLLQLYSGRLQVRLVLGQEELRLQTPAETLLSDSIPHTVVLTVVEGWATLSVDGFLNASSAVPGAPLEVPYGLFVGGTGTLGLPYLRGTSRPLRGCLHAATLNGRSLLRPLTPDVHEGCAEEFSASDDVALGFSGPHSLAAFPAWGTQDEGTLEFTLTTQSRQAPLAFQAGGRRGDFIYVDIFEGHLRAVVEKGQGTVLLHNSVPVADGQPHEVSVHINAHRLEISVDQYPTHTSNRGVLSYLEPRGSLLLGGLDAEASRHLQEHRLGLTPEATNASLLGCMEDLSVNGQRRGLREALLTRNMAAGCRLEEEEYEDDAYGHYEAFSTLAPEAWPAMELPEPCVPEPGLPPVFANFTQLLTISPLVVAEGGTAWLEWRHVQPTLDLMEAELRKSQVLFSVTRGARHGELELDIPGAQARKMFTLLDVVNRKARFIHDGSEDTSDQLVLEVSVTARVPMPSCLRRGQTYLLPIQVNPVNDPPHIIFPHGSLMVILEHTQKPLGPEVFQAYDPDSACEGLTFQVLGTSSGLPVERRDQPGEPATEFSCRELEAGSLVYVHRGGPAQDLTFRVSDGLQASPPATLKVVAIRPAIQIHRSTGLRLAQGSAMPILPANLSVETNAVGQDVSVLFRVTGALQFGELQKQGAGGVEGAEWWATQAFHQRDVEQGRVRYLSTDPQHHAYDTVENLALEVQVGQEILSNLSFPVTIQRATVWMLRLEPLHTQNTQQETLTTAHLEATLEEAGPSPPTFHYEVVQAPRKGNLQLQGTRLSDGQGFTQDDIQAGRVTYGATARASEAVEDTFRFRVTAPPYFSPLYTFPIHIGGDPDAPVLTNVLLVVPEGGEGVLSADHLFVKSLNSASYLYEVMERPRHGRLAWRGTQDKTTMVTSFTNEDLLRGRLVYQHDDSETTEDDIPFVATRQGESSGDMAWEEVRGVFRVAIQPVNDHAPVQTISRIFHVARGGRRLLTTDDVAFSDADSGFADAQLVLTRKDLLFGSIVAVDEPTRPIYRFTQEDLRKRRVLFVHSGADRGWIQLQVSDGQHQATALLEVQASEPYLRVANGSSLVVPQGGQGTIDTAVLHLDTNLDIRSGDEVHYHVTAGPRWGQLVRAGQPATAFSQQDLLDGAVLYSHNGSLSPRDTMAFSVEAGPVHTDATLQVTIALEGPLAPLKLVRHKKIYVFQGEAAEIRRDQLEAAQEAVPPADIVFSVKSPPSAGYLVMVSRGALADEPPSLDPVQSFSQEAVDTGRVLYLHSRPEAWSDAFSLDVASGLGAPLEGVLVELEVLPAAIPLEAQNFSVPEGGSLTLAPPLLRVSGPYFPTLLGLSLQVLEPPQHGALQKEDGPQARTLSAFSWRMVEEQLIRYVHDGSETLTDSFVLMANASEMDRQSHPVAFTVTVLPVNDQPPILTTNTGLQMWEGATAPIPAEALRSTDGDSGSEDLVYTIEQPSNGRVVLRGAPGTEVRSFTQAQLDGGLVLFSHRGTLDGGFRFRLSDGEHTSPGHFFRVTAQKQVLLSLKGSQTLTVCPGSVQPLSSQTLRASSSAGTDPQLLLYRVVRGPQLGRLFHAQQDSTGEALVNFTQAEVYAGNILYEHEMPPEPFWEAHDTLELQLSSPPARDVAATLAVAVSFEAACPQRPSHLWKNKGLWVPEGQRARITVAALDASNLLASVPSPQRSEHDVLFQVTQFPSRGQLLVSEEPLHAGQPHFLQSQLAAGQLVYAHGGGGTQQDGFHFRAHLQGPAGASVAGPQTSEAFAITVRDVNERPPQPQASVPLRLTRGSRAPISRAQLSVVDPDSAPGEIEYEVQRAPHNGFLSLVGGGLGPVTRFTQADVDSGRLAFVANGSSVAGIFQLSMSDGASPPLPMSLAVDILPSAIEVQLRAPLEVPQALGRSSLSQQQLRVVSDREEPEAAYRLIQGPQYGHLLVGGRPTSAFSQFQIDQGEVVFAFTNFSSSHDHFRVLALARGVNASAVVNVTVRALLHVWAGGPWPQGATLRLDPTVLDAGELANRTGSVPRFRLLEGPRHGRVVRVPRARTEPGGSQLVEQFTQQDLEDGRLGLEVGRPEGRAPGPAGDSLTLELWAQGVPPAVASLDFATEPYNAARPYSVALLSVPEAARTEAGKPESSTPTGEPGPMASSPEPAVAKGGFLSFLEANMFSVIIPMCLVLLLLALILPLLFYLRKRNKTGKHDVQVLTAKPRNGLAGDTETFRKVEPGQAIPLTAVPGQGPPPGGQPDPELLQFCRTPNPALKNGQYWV
Method: FIG. 1. Selective reactivity in ELISA of soluble scFv C21 with HMW-MAA^+ human cell lines. […] Binding of scFv fragments was detected using SA-HRP. Results are expressed as absorbance at 490 nm. Human anti-anti-id scFv #119 ( ? ) was used as a specificity control.
The ELISA to test the reactivity of soluble scFv antibodies with synthetic peptides and melanoma cells and of mouse immune sera with melanoma cells and with peptides was performed as described (Desai et al., Cancer Res 58:2417-2425, 1998; Desai et al., J Immunol 165:3275-3283, 2000; Matsui et al., J Immunol 139:2088-2095, 1987). Results are expressed as absorbance of optical density (O.D.) at 450 nm. The competition assay to map the antigenic determinant recognized by scFv C21 was performed by mixing biotinylated scFv C21 (0.25 μg/well) with two-fold dilutions of mouse mAb or scFv PP or by mixing biotinylated mAb (at an optimal amount giving absorbance, measured at 450 nm of 1.0) with two fold dilutions of scFv PP. […] Binding of biotinylated scFv antibodies and biotinylated mAb to target cells was measured by sequential incubation with SA-HRP and substrate as described (Noronha et al., J Immunol 161:2968-2976, 1998). The results are expressed as percent inhibition by mAb, scFv or peptide (competitor or inhibitor) of scFv or mAb binding to HMW-MAA^+ cells. […]

HMW-MAA [2] = target: T1, HMW-MAA; test: Indirect immunoperoxidase staining of melanocytic lesions; assay type: binding; parameters: from tissue; host or cells: human nevi, primary and metastatic melanoma lesions (frozen sections)
Text: FIGS. 6A-6F. Immunohistochemical staining by scFv C21 of frozen surgically removed human nevi and melanoma lesions. scFv C21 stains a frozen nevus (FIG. 6A), a frozen primary melanoma lesion (FIG. 6B) and a frozen metastatic melanoma lesion (FIG. 6C). The specificity of the staining was monitored by staining the nevus (FIG. 6D), the primary (FIG. 6E) and the metastatic (FIG. 6F) melanoma lesions with the unrelated scFv #119.
The human melanoma cell lines Colo38, FO-1 and Melur and the human B lymphoid cell line LG2 were maintained in RPMI 1640 medium (Tissue Culture Media Facility, Roswell Park Cancer Institute (RPCI), Buffalo, N.Y.) supplemented with 10% serum plus supplement (BioWhittaker, Walkersville, Md.) and 2 mM L-glutamine (BioWhittaker). The human melanoma cell lines M14 and SK-MEL-28, the human fibroblasts FF2376, the human breast carcinoma cell line T47D, the human bladder carcinoma cell line T24, the human prostate carcinoma cell line PC3, the human B lymphoid cell lines JY and LKT13, and the rat neural cell line B49 were maintained in RPMI 1640 medium supplemented with 10% fetal bovine serum (FBS) (BioWhittaker) and 2 mM L-glutamine. The M14/HMW-MAA cells which express HMW-MAA following transfection of M14 cells with a plasmid DNA of pcDNA 3.1™ (+)/full length of HMW-MAA DNA construct (Yang et al., J Cell Biol 165:881-891, 2004) were grown in RPMI 1640 medium supplemented with 10% FBS, 2 mM L-glutamine and 0.4 mg/ml G418 (Promega, Madison, Wis.). Cells were cultured at 37° C. in a 5% CO2 atmosphere. Cell lysates were prepared as described (Desai et al., Cancer Res 58:2417-2425, 1998, herein incorporated by reference). Lesions of melanocytic origin were obtained from patients who had undergone surgery in the Department of Dermatology at Kumamoto University School of Medicine (Kumamoto, Japan). The diagnosis of melanoma lesions was based on histopathologic characteristics. The frozen and formalin-fixed tissue sections were prepared as described previously (Desai et al., Cancer Res 58:2417-2425, 1998, herein incorporated by reference).
The indirect immunoperoxidase staining of frozen and formalin-fixed tissue sections was performed as described previously (Desai et al., Cancer Res 58:2417-2425, 1998, herein incorporated by reference).

B1: scFv C21: HMW-MAA-specific fully human scFv from semi-synthetic phage display library; VH SEQ ID NO: 5, VL SEQ ID NO: 6 (antibody, listed as Homo sapiens, V domains shown)
VH: QVQLVQSGAEVKKPGSSVKVSCKASGGTFSSYAISWVRQAPGQGLEWMGGIIPIFGTANYAQKFQGRVTITADESTSTAYMELSSLRSDDTAVYYCARALDPITFDSWGQGTLVTVSR
VL: SELTQDPAVSVALGQTVRITCQGDSLRSYYASWYQQKPGQAPVLVIYGKNNRPSGIPDRFSGSSSGNTASLTITGAQAEDEADYYCNSRDSSGNHVVFGGGTKLTVLGRS
modifications: scFv linker
- Reactivity in ELISA with panel of human cell lines with differential HMW-MAA expression and rat neural cell line B49 (HMW-MAA [1]; FIG. 1): reacted only with the melanoma cell lines Colo38, FO-1, Melur and SK-MEL-28
- Reactivity in ELISA relative to the other selected clones (HMW-MAA [1]; clones C3, C21, C29, C30): highest reactivity
- Staining of formalin fixed paraffin embedded melanocytic lesions (HMW-MAA [2]; formalin fixed paraffin embedded): did not stain
- Staining of frozen melanocytic lesions in the immunoperoxidase reaction (HMW-MAA [2]; frozen sections): stained frozen melanocytic lesions
- Metastatic lesions stained with a heterogeneous pattern (HMW-MAA [2]; metastatic lesions): 3 lesions
- Metastatic lesions stained with a homogeneous pattern (HMW-MAA [2]; metastatic lesions): 3 lesions
- Metastatic lesions with cytoplasmic staining (HMW-MAA [2]; metastatic lesions): 3 lesions
- Metastatic lesions with membranous and cytoplasmic staining (HMW-MAA [2]; metastatic lesions): 3 lesions
- Primary lesions stained with a heterogeneous pattern (HMW-MAA [2]; out of 15 primary lesions): 2 lesions
- Primary lesions stained with a homogeneous pattern (HMW-MAA [2]; out of 15 primary lesions): 9 lesions
- Pigmented nevi stained homogeneously (membranous and cytoplasmic pattern) (HMW-MAA [2]; pigmented nevi): 4
- Primary lesions with cytoplasmic staining (HMW-MAA [2]; primary lesions): 6 lesions
- Primary lesions with membranous and cytoplasmic staining (HMW-MAA [2]; primary lesions): 4 lesions
- Primary lesions with membranous staining (HMW-MAA [2]; primary lesions): 1 lesions
